The target in experiment [1] is T1, recombinant human Hsc70 (Genbank Accession No. P11142.1) (human, UniProt P11142 1-646, limits assumed).
T1 construct: also called rhHsc70; rh-Hsc70
Put plainly: size exclusion chromatography after incubating peptide with Hsc70 in PBS, 37 C, 1 h, 4:1 molar excess peptide:Hsc70. As to the method: Four peptides (Table 9) containing a phosphorylated serine residue were synthesized to 95% purity (GenScript, Cambridge, Mass.). […] These peptides were individually incubated with Hsc70 in PBS at 37° C. for 1 hour at a 4:1 molar excess (peptide:Hsc70) to form non-covalent Hsc70-peptide complexes. After incubation, the complexes were analyzed by SEC to quantify the proportion of Hsc70 molecules loaded with peptide.
(Size exclusion chromatography separates by hydrodynamic size, large species first.)

Experiment [2] addresses T2, recombinant human Hsc70 (Genbank Accession No. P11142.1) (Biomay AG) (human, UniProt P11142 1-646, limits assumed).
T2 construct: Resolves on SEC as a monomeric and an oligomeric form; also called rhHsc70; rh-Hsc70
Kind of experiment: size exclusion chromatography; Hsc70:peptide molar ratio 1:2, same result at 1:5. As to the method: Standard size exclusion chromatography was carried out using 7 μM of recombinant human Hsc70 (Genbank Accession No. P11142.1) (Biomay AG) in a reaction buffer containing 20 mM HEPES and 200 mM KCL in a final volume of 50 μl. Reactions were incubated at 37° C. for 1 or 2 hours and centrifuged 2 min at 13000 RPM. Reaction products (10 μg) were resolved on a TSKgel SuperSW3000, 4 μm particle size, 25 nm pore size gel filtration chromatography column (Tosoh Bioscience). […] The percentage of Hsc70 complexed with peptide in each reaction mixture was calculated by measuring the surface area of the appropriate peak.
The comparative effect of placing the high affinity Hsc70 binding sequence at the N- and C-terminus of the ovalbumin peptide, linked via the FFRK (SEQ ID NO:447) linker in both cases, was also tested. […] The sequence of the test peptide with the C-terminal high affinity Hsc70 binding sequence was […] (SEQ ID NO:449), and the sequence of the test peptide with N-terminal high affinity Hsc70 binding sequence was […] (SEQ ID NO:450).

Square brackets hold non-standard residues; d marks the D form. Ends that are not written are not given here. pS = N[C@@H](COP(=O)(O)O)C(=O)O

T1 sequence (P11142 whole entry, one chain of several): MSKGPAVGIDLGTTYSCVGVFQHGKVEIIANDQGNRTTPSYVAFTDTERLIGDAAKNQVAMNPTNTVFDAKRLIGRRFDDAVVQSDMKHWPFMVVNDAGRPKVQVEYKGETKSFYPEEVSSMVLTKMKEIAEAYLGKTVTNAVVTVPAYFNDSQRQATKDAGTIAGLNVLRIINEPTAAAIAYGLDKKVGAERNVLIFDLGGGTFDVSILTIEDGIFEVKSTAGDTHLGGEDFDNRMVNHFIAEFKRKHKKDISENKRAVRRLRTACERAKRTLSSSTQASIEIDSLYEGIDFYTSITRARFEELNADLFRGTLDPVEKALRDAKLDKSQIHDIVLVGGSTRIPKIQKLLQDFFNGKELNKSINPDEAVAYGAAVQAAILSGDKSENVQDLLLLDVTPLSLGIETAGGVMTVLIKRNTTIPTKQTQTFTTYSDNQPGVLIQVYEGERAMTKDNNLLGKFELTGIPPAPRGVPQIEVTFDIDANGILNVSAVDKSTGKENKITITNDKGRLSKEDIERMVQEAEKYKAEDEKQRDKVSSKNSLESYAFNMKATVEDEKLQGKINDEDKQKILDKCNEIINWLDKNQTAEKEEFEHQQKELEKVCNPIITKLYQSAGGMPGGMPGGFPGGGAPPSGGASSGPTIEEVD
T2 sequence (P11142 whole entry, one chain of several): as above

In the case of NLLRLTGFFRKRVA[pS]PTSGV, in experiment [1], the “Percentage of Hsc70 loaded with peptide” value was 34%.
Consider NLLRLTGFFRKSIINFEKL, for which the binding result in experiment [2] is given as “binds”.
As to NLLRLTGFFRKGLLG[pS]PVRA, the “Percentage of Hsc70 loaded with peptide” value in experiment [1] was 41%.
Same read-out and setting: then GLLG[pS]PVRAFFRKNLLRLTG, with 74%; and RVA[pS]PTSGVFFRKNLLRLTG, with 75%.
